Molecular target: FBH1 (F-box helicase 1, isoform 4);SKP1;CUL1;RBX1 (human;human;human;human, UniProt Q2TAK1;P63208;Q13616;P62877 1-969;1-163;1-776;1-108, |||)
Test: EMSA

B1: Lag gap fork (mixed)
DNA 1: CTCAGGACTCAGTTCGTCAGCCCTTGACAGCGATGGAAGC
DNA 2: CGAAGGTAGCGACAGTTCCCCTGACGAACTGAGTCCTGAG
DNA 3: GCTTCCATCGCTCTCAAG
DNA 4: TCGCTACCTTCG
B1: binds.

Reference: PMC12946210
